# Measurements: publication PMC8352866
# What was measured:
# [1] = biological target: PII-like signaling protein SbtB; test: cryo-EM structure; SbtA-SbtB complex purified in the presence of AMP; 3.15 Å resolution
# [2] = biological target: Synechocystis sp. PCC 6803 SbtA (Synechocystis sp. PCC 6803); test: cryo-EM structure; free SbtA, purified; 3.50 Å resolution
# [3] = biological target: Synechocystis sp. PCC 6803 SbtA (Synechocystis sp. PCC 6803); test: cryo-EM structure; SbtA-SbtB complex purified in the presence of AMP; 3.15 Å resolution
substance,measurement,setting,value
PII-like signaling protein SbtB (natural protein),stoichiometry N,[1],3
Synechocystis sp. PCC 6803 SbtA (natural protein),stoichiometry N,[2],3
same,stoichiometry N,[3],3
